Experimental findings from article PMC4176187 are described below.

This test has as its target 40S ribosomal subunits purified from rabbit reticulocyte lysate (rabbit) (UniProt G1U0Q2). Description: protein transfer assay.

For the substance “human recombinant SRP9/14 protein heterodimer, wild type (from UniProt P49458 1-86; P37108 1-136) (complex)”, the percent of the protein transferred from scAlu RNA to 40S is 41%.

In turn, “human recombinant SRP9/14A5 (basic pentapeptide K96-K100 of SRP14 mutated) (from UniProt P49458 1-86; P37108 1-136) (complex)” came in with a percent of the protein transferred from scAlu RNA to 40S of 16%.
